Measured values from US20200030424A1 (INNOVATIVE CELLULAR THERAPEUTICS, published 2020).
Residue numbers refer to the chain shown, from its start. Values belong to the binder of their own block, whether it stands above or below them.

Legend:
[1] = target: T1, Human CD19 expressed on cell surfaces (Raji cells; CD19-K562 cells) (human, UniProt P15391 20-556); experiment: flow cytometry on Raji cells
T1 construct: whole, on cells; also called antigen CD19; human CD19 antigen
T1 sequence (looked up): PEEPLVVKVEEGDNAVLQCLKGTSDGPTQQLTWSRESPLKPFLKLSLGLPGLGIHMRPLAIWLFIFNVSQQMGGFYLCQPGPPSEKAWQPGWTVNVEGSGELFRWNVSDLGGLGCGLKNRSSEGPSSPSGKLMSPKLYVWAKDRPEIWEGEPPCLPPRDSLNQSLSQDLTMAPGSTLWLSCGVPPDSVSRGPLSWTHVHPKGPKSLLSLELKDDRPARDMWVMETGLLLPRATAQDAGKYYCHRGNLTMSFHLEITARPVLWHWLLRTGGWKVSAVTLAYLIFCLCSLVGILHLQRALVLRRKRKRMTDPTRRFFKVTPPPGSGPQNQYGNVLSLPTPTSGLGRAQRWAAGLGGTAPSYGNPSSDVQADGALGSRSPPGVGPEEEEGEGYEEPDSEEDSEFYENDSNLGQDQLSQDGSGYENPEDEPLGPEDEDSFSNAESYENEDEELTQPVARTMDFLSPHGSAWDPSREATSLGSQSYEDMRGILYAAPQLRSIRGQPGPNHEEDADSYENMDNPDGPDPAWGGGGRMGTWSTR
Experimental: Raji cell is a strain derived from human B lymphoma cell line. Raji cells were purchased from Chinese Academy of Medical Sciences, Institute of Basic Medical Cell Resource Center. The surface of Raji cells expresses antigen CD19, and the anti-CD19 antibody can be used to analyze the binding capacity of recombinant humanized monoclonal antibodies. By flow cytometry (IFA), binding abilities of the four recombinant humanized antibodies were analyzed.

[2] = target: T1, Human CD19 expressed on cell surfaces …; experiment: flow cytometry on CD19-K562 cells

B1: hFMC63 (antibody, V domains shown)
VH: QVQLQESGPGLVKPSETLSLTCTVSGVSLPDYGWSWIRQPPGKGLEWIGRIWGSETTYYNPSLKSRVTISVDTSKNQFSLKLSSVTAADTAVYYCAKHYYYGGSYAMDYWGQGTLVTVSS
VL: DIQMTQTTSSLSASLGDRVTISCRASQDISKYLNWYQQKPDGTVKLLIYHTSRLHSGVPSRFSGSGSGTDYSLTISNLEQEDIATYFCQQGNTLPYTFGGGTKLEIK
notes: Humanized heavy chain hFMC63VH in pTSEG1n-S (human heavy constant)
MFI (GeoMean) [1]: 67

B2: h1FMC63 (antibody, V domains shown)
VH: B1 VH with W34V, R50V, P61S, S62A
VL: B1 VL
notes: Humanized heavy chain h1FMC63VH in pTSEG1n-S (human heavy constant)
MFI (GeoMean) [1]: 186

B5: h2FMC63VH + L2D8 (antibody, V domains shown)
VH: EVQLVESGGGLVQPGGSLRLSCAASGVSLPDYGVSWVRQAPGKGLEWVSVIWGSETTYYNSALKSRFTISRDNAKNSLYLQMNSLRAEDTAVYYCAKHYYYGGSYAMDYWGQGTLVTVSS
VL: DIQMTQSPSSLSASVGDRVTITCRASQSVGSFLAWYQQKPGKAPKLLIYGASSRESGVPSRFSGSGSGTDFTLTISSLQPEDFATYYCQQTYHNPETFGQGTKVEIK
notes: Humanized monoclonal antibody transiently expressed in HEK293 cells, with heavy chain from pTSEG1n-h2FMC63VH; also called L2D8 (humanized antibody)
MFI(Geo) [2]: 125

B6: h2FMC63 (antibody, V domains shown)
VH: B5 VH
VL: B1 VL
notes: Humanized heavy chain h2FMC63VH in pTSEG1n-S (human heavy constant); also called third version of a humanized antibody
MFI (GeoMean) [1]: 330

The next lines start with the values.

MFI(Geo) [2]: 147
B3: h2FMC63VH + L5F3 (antibody, V domains shown)
VH: B5 VH
VL: SYELTQPPSVSVAPGQTARITCGGNNLGDNSARWYQQKPGQAPVLVIYGNSNRPSGIPERFSGSNSGNTATLTISGTQAEDEADYYCQVTDTRSTSVVFGGGTKLTVL
notes: Humanized monoclonal antibody transiently expressed in HEK293 cells, with heavy chain from pTSEG1n-h2FMC63VH; also called L5F3 (humanized antibody)

MFI(Geo) [2]: 55.5
B4: h2FMC63VH + L2D12 (antibody, V domains shown)
VH: B5 VH
VL: SYELTQPPSVSVAPGQTARITCGGNDLRAQYVHWYQQKPGQAPVLVMYDDSKRPSGIPERFSGSNSGNTATLTISGTQAEDEADYYCQSWDRTSEPKVFGGGTKLTVL
notes: Humanized monoclonal antibody transiently expressed in HEK293 cells, with heavy chain from pTSEG1n-h2FMC63VH; also called L2D12 (humanized antibody)
